Laboratory results from the RNAGym collection of RNA variant scans (doi:10.7554/elife.90254).

B1: OR4K15 (parent)
chain: GUUAACGGUCAUAGGCCAUGGAAACUAGGAGCACCAUUUCGCUGCCAGUGAAGAAAUGAACAAAGAAAAUCUGGGCCAGGCAGGCAUCAAAAGAAAUAGUCUUGCGCUCAACCAGAAAGUCUGUAAUCAUUUUAAGGGUA

Variants of: B1
Assay: self-cleavage, relative activity (ratio to wild type); higher = more cleavage; in vitro, sequencing; the parent is a self-cleaving ribozyme

Row | Variant | self-cleavage
1 | GUUAACGGUCAUAGGCCAUGGAAACUAGGAGCACCAUUUCGCUGCCAGUGAAGGAAUGAACAAAGAAAACCUGGGCCAGGCAGGCAUCAAAAGAAAUAGUCUUGCGCUCAACCAGAAAGUCUGUAAUCAUUUUAAGGGUA [A54G U70C] | 0.61
2 | GUUAACGGUCAUAGGCCAUGGAAACUAGGAGCACCAUUUCGCUGCCAGUGAAGUAAUGAACAAAGAAAAUCUGGGCCAGGCAGGCAUCAAGAGAAAUAGUCUUGCGCUCAACCAGAAAGUCUGUAAUCAUUUUAAGGGUA [A54U A91G] | 0.86
3 | GUUAACGGUCAUAGGCCAUGGAAACUAGGAGCACCAUUUCGCUGCCAGUGAAGUAAUGAACAAAGAGAAUCUGGGCCAGGCAGGCAUCAAAAGAAAUAGUCUUGCGCUCAACCAGAAAGUCUGUAAUCAUUUUAAGGGUA [A54U A67G] | 0.82
4 | GUUAACGGUCAUAGGCCAUGGAAACUAGGAGCACCAUUUCGCUGCCAGUGAAGUAAUGGACAAAGAAAAUCUGGGCCAGGCAGGCAUCAAAAGAAAUAGUCUUGCGCUCAACCAGAAAGUCUGUAAUCAUUUUAAGGGUA [A54U A59G] | 1.75
5 | GUUAACGGUCAUAGGCCAUGGAAACUAGGAGCACCAUUUCGCUGCCAGUGAAGUAUUGAACAAAGAAAAUCUGGGCCAGGCAGGCAUCAAAAGAAAUAGUCUUGCGCUCAACCAGAAAGUCUGUAAUCAUUUUAAGGGUA [A54U A56U] | 1.8
6 | GUUAACGGUCAUAGGCCAUGGAAACUAGGAGCACCAUUUCGCUGCCAGUGAAGUAAUGAACAAAGAAAAUCUGGGCCAGGCAGGCGUCAAAAGAAAUAGUCUUGCGCUCAACCAGAAAGUCUGUAAUCAUUUUAAGGGUA [A54U A86G] | 0.36
7 | GUUAACGGUCAUAGGCCAUGGAAACUAGGAGCACCAUUUCGCUGCCAGUGAAGGAAUGAACAAAGAAAAUCUGGGCCAGGCAGGCAUCAAAAGAAAUAGUCUUGCGCUCAACCAGAAAGUCUGAAAUCAUUUUAAGGGUA [A54G U124A] | 0.9
8 | GUUAACGGUCAUAGGCCAUGGAAACUAGGAGCACCAUUUCGCUGCCAGUGAAGGAAUGAACAAAGAAAAUCUGGGCCAGGCAGGCAUCAAAAGAAAUAGUCUAGCGCUCAACCAGAAAGUCUGUAAUCAUUUUAAGGGUA [A54G U103A] | 0.48
9 | GUUAACGGUCAUAGGCCAUGGAAACUAGGAGCACCAUUUCGCUGCCAGUGAAGGAAUGAACAAAGAAAAUCUGGGCCAGGCAGGCAUCAAAAGAAAUAGUCUCGCGCUCAACCAGAAAGUCUGUAAUCAUUUUAAGGGUA [A54G U103C] | 0.91
10 | GUUAACGGUCAUAGGCCAUGGAAACUAGGAGCACCAUUUCGCUGCCAGUGAAGGAAUGAACAAAGAAAAUCUGGGCCAGGCAGGCAUCAAAAGAAACAGUCUUGCGCUCAACCAGAAAGUCUGUAAUCAUUUUAAGGGUA [A54G U97C] | 1.37
11 | GUUAACGGUCAUAGGCCAUGGAAACUAGGAGCACCAUUUCGCUGCCAGUGAAGGAAUGAACAAAGAAAAUCUGGGCCAGGCAGGCAUCAAAAGAAAUAGUCUUGCGCUCAACCAGAAAGUCUGUAAUCAUUUUAAGUGUA [A54G G137U] | 1.44
12 | GUUAACGGUCAUAGGCCAUGGAAACUAGGAGCACCAUUUCGCUGCCAGUGAAGGAAUGAACAAAGAAAAUCUGGGCCAGGCAGGCAUCAAAAGAAAUAGUCCUGCGCUCAACCAGAAAGUCUGUAAUCAUUUUAAGGGUA [A54G U102C] | 1.41
13 | GUUAACGGUCAUAGGCCAUGGAAACUAGGAGCACCAUUUCGCUGCCAGUGAAGGAAUGAACAAAGAAAAUCUGGGCCAGGCAGGCAUCAAAAGAAAUAGUCAUGCGCUCAACCAGAAAGUCUGUAAUCAUUUUAAGGGUA [A54G U102A] | 0.17
14 | GUUAACGGUCAUAGGCCAUGGAAACUAGGAGCACCAUUUCGCUGCCAGUGAAGGAAUGAACAAAGAAAAUCUGGGCCAGGCAGGCAUCAAAAGAAAUAGUCUUGCGCUCAACCAAAAAGUCUGUAAUCAUUUUAAGGGUA [A54G G115A] | 0.25
15 | GUUAACGGUCAUAGGCCAUGGAAACUAGGAGCACCAUUUCGCUGCCAGUGAAGUAAUGAACAAAGAAAAUCUGGGCCAGGCAGGCAUCAGAAGAAAUAGUCUUGCGCUCAACCAGAAAGUCUGUAAUCAUUUUAAGGGUA [A54U A90G] | 0.85
16 | GUUAACGGUCAUAGGCCAUGGAAACUAGGAGCACCAUUUCGCUGCCAGUGAAGUAAUGAACAAAGAAAAUCUGGGCCAGGCCGGCAUCAAAAGAAAUAGUCUUGCGCUCAACCAGAAAGUCUGUAAUCAUUUUAAGGGUA [A54U A82C] | 0.13
17 | GUUAACGGUCAUAGGCCAUGGAAACUAGGAGCACCAUUUCGCUGCCAGUGAAGUAAUGAACAAAGAAAAUCUGGGCCAGGCGGGCAUCAAAAGAAAUAGUCUUGCGCUCAACCAGAAAGUCUGUAAUCAUUUUAAGGGUA [A54U A82G] | 0.64
18 | GUUAACGGUCAUAGGCCAUGGAAACUAGGAGCACCAUUUCGCUGCCAGUGAAGUAAUGAGCAAAGAAAAUCUGGGCCAGGCAGGCAUCAAAAGAAAUAGUCUUGCGCUCAACCAGAAAGUCUGUAAUCAUUUUAAGGGUA [A54U A60G] | 0.97
19 | GUUAACGGUCAUAGGCCAUGGAAACUAGGAGCACCAUUUCGCUGCCAGUGAAGGAAGGAACAAAGAAAAUCUGGGCCAGGCAGGCAUCAAAAGAAAUAGUCUUGCGCUCAACCAGAAAGUCUGUAAUCAUUUUAAGGGUA [A54G U57G] | 0.2
20 | GUUAACGGUCAUAGGCCAUGGAAACUAGGAGCACCAUUUCGCUGCCAGUGAAGGAACGAACAAAGAAAAUCUGGGCCAGGCAGGCAUCAAAAGAAAUAGUCUUGCGCUCAACCAGAAAGUCUGUAAUCAUUUUAAGGGUA [A54G U57C] | 0.65
21 | GUUAACGGUCAUAGGCCAUGGAAACUAGGAGCACCAUUUCGCUGCCAGUGAAGGAAUGAACAAAGAAAAUCUGGGCCAGGCAGGCAUCAAAAGAAAUAGUCUUGCACUCAACCAGAAAGUCUGUAAUCAUUUUAAGGGUA [A54G G106A] | 0.02

Row | Variant | self-cleavage
22 | GUUAACGGUCAUAGGCCAUGGAAACUAGGAGCACCAUUUCGCUGCCAGUGAAGGAAUGAACAAAGAAAAUCUGGGCCAGGCAGGCACCAAAAGAAAUAGUCUUGCGCUCAACCAGAAAGUCUGUAAUCAUUUUAAGGGUA [A54G U87C] | 0.9
23 | GUUAACGGUCAUAGGCCAUGGAAACUAGGAGCACCAUUUCGCUGCCAGUGAAGGAAUGAACAAAGAAAAUCUGGGCCAGGCAGGCAACAAAAGAAAUAGUCUUGCGCUCAACCAGAAAGUCUGUAAUCAUUUUAAGGGUA [A54G U87A] | 1.79
24 | GUUAACGGUCAUAGGCCAUGGAAACUAGGAGCACCAUUUCGCUGCCAGUGAAGGAAUGAACAAAGAAAAUCUGGGCCAGGCAGGCAUCAAAAGAAAUAGUCUUGCGCUCAAUCAGAAAGUCUGUAAUCAUUUUAAGGGUA [A54G C112U] | 0.03
25 | GUUAACGGUCAUAGGCCAUGGAAACUAGGAGCACCAUUUCGCUGCCAGUGAAGGAAUGAACAAAGAAAAUCUGGGCCAGGCAGGCAUCAAAAGAAAUAGUCUUGCGCUCAACCAGAAAGUCUGUAAACAUUUUAAGGGUA [A54G U127A] | 2.16
26 | GUUAACGGUCAUAGGCCAUGGAAACUAGGAGCACCAUUUCGCUGCCAGUGAAGGAAUGAACAAAGAAAAUCUGGGCCAGGCAGGCAUCAAAAGAAAUAGUCUUGUGCUCAACCAGAAAGUCUGUAAUCAUUUUAAGGGUA [A54G C105U] | 0.36
27 | GUUAACGGUCAUAGGCCAUGGAAACUAGGAGCACCAUUUCGCUGCCAGUGAAGGAAUGAACAAAGAAAAUCUGGGCCAGGCAGGCAUCAAAAGAAAUAGUCUUGCGCUCAACCAGAAAGUCUUUAAUCAUUUUAAGGGUA [A54G G123U] | 1.75
28 | GUUAACGGUCAUAGGCCAUGGAAACUAGGAGCACCAUUUCGCUGCCAGUGAAGGAAUGAACAAAGAAAAUCUGGGCCAGGCAGGCAUCAAAAGAAAUAGUCUUGCGCUCAACCAGAAAGGCUGUAAUCAUUUUAAGGGUA [A54G U120G] | 2.09
29 | GUUAACGGUCAUAGGCCAUGGAAACUAGGAGCACCAUUUCGCUGCCAGUGAAGGAAUGAACAAAGAAAAUCUGGGCCAGGCAGGCAUCAAAAGAAAUAGUCUUGCGCACAACCAGAAAGUCUGUAAUCAUUUUAAGGGUA [A54G U108A] | 0.02
30 | GUUAACGGUCAUAGGCCAUGGAAACUAGGAGCACCAUUUCGCUGCCAGUGAAGUAAUGAACAAAGAAAAUCUGGGCCAGGCAGGCAUCGAAAGAAAUAGUCUUGCGCUCAACCAGAAAGUCUGUAAUCAUUUUAAGGGUA [A54U A89G] | 1.42
31 | GUUAACGGUCAUAGGCCAUGGAAACUAGGAGCACCAUUUCGCUGCCAGUGAAGUAAUGAACAAAGAAAAUCUGGGCCAGGCAGGCAUCCAAAGAAAUAGUCUUGCGCUCAACCAGAAAGUCUGUAAUCAUUUUAAGGGUA [A54U A89C] | 1.5
32 | GUUAACGGUCAUAGGCCAUGGAAACUAGGAGCACCAUUUCGCUGCCAGUGAAGGAAUGAACAAAGAAAAUCUGGGCCAGGCAGGCAUCAAAAGAAAUAGUCUUGCGCUCAACCAGAAAGUCUGUAAUCAUUUCAAGGGUA [A54G U133C] | 1.88
33 | GUUAACGGUCAUAGGCCAUGGAAACUAGGAGCACCAUUUCGCUGCCAGUGAAGGAAUGAACAAAGAAAAUCUGGGCCAGGCAGGCAUCAAAAGAAAUAGUCUUGCGCUCAACCAGAAAGUCUGUAAUCAUUCUAAGGGUA [A54G U132C] | 1.28
34 | GUUAACGGUCAUAGGCCAUGGAAACUAGGAGCACCAUUUCGCUGCCAGUGAAGGAAUGAACAAAGAAAAUCUGGACCAGGCAGGCAUCAAAAGAAAUAGUCUUGCGCUCAACCAGAAAGUCUGUAAUCAUUUUAAGGGUA [A54G G75A] | 0.14
35 | GUUAACGGUCAUAGGCCAUGGAAACUAGGAGCACCAUUUCGCUGCCAGUGAAGGAAUGAACAAAGAAAAUCUGGGCCAGGCAGGCAUCAAAAGAAAUAGCCUUGCGCUCAACCAGAAAGUCUGUAAUCAUUUUAAGGGUA [A54G U100C] | 2.16
36 | GUUAACGGUCAUAGGCCAUGGAAACUAGGAGCACCAUUUCGCUGCCAGUGAAGGAAUGAACAAAGAAAAUCUGGGCCAGGCAGGCAUCAAAAGAAAUAGUCUUGCGCUCAACCAGAAAGUCGGUAAUCAUUUUAAGGGUA [A54G U122G] | 2.7
37 | GUUAACGGUCAUAGGCCAUGGAAACUAGGAGCACCAUUUCGCUGCCAGUGAAGGAAUGAACAAAGAAAAUCUGGGCCAGGCAGGCAUCAAAAAAAAUAGUCUUGCGCUCAACCAGAAAGUCUGUAAUCAUUUUAAGGGUA [A54G G93A] | 1.21
38 | GUUAACGGUCAUAGGCCAUGGAAACUAGGAGCACCAUUUCGCUGCCAGUGAAGUAAUGAACAAUGAAAAUCUGGGCCAGGCAGGCAUCAAAAGAAAUAGUCUUGCGCUCAACCAGAAAGUCUGUAAUCAUUUUAAGGGUA [A54U A64U] | 1.98
39 | GUUAACGGUCAUAGGCCAUGGAAACUAGGAGCACCAUUUCGCUGCCAGUGAAGGAAUGAACAAAGAAAAUCUGUGCCAGGCAGGCAUCAAAAGAAAUAGUCUUGCGCUCAACCAGAAAGUCUGUAAUCAUUUUAAGGGUA [A54G G74U] | 0.11
40 | GUUAACGGUCAUAGGCCAUGGAAACUAGGAGCACCAUUUCGCUGCCAGUGAAGGAAUGAACAAAGAAAAUCUGGGCCAGGCAGGCAUCAAAAGAAAUAGUCUUGCGCUCAACCAGAAAGUCUGUAAUCAUCUUAAGGGUA [A54G U131C] | 1.3
41 | GUUAACGGUCAUAGGCCAUGGAAACUAGGAGCACCAUUUCGCUGCCAGUGAAGGAAUGAACAAAGAAAAUCUGGGCCAGGCAGACAUCAAAAGAAAUAGUCUUGCGCUCAACCAGAAAGUCUGUAAUCAUUUUAAGGGUA [A54G G84A] | 2.33
